{"source": "paper PMC6254361", "about": "“The properties of Msh2–Msh6 ATP binding mutants suggest a signal amplification mechanism in DNA mismatch repair” (The Journal of Biological Chemistry, 2018)", "binders": {"B1": {"name": "S. cerevisiae Mlh1–Pms1 (complex)", "chain 1": "MSLRIKALDASVVNKIAAGEIIISPVNALKEMMENSIDANATMIDILVKEGGIKVLQITDNGSGINKADLPILCERFTTSKLQKFEDLSQIQTYGFRGEALASISHVARVTVTTKVKEDRCAWRVSYAEGKMLESPKPVAGKDGTTILVEDLFFNIPSRLRALRSHNDEYSKILDVVGRYAIHSKDIGFSCKKFGDSNYSLSVKPSYTVQDRIRTVFNKSVASNLITFHISKVEDLNLESVDGKVCNLNFISKKSISPIFFINNRLVTCDLLRRALNSVYSNYLPKGNRPFIYLGIVIDPAAVDVNVHPTKREVRFLSQDEIIEKIANQLHAELSAIDTSRTFKASSISTNKPESLIPFNDTIESDRNRKSLRQAQVVENSYTTANSQLRKAKRQENKLVRIDASQAKITSFLSSSQQFNFEGSSTKRQLSEPKVTNVSHSQEAEKLTLNESEQPRDANTINDNDLKDQPKKKQKLGDYKVPSIADDEKNALPISKDGYIRVPKERVNVNLTSIKKLREKVDDSIHRELTDIFANLNYVGVVDEERRLAAIQHDLKLFLIDYGSVCYELFYQIGLTDFANFGKINLQSTNVSDDIVLYNLLSEFDELNDDASKEKIISKIWDMSSMLNEYYSIELVNDGLDNDLKSVKLKSLPLLLKGYIPSLVKLPFFIYRLGKEVDWEDEQECLDGILREIALLYIPDMVPKVDTSDASLSEDEKAQFINRKEHISSLLEHVLFPCIKRRFLAPRHILKDVVEIANLPDLYKVFERC", "chain 2": "MTQIHQINDIDVHRITSGQVITDLTTAVKELVDNSIDANANQIEIIFKDYGLESIECSDNGDGIDPSNYEFLALKHYTSKIAKFQDVAKVQTLGFRGEALSSLCGIAKLSVITTTSPPKADKLEYDMVGHITSKTTTSRNKGTTVLVSQLFHNLPVRQKEFSKTFKRQFTKCLTVIQGYAIINAAIKFSVWNITPKGKKNLILSTMRNSSMRKNISSVFGAGGMRGLEEVDLVLDLNPFKNRMLGKYTDDPDFLDLDYKIRVKGYISQNSFGCGRNSKDRQFIYVNKRPVEYSTLLKCCNEVYKTFNNVQFPAVFLNLELPMSLIDVNVTPDKRVILLHNERAVIDIFKTTLSDYYNRQELALPKRMCSQSEQQAQKRLKTEVFDDRSTTHESDNENYHTARSESNQSNHAHFNSTTGVIDKSNGTELTSVMDGNYTNVTDVIGSECEVSVDSSVVLDEGNSSTPTKKLPSIKTDSQNLSDLNLNNFSNPEFQNITSPDKARSLEKVVEEPVYFDIDGEKFQEKAVLSQADGLVFVDNECHEHTNDCCHQERRGSTDTEQDDEADSIYAEIEPVEINVRTPLKNSRKSISKDNYRSLSDGLTHRKFEDEILEYNLSTKNFKEISKNGKQMSSIISKRKSEAQENIIKNKDELEDFEQGEKYLTLTVSKNDFKKMEVVGQFNLGFIIVTRKVDNKYDLFIVDQHASDEKYNFETLQAVTVFKSQKLIIPQPVELSVIDELVVLDNLPVFEKNGFKLKIDEEEEFGSRVKLLSLPTSKQTLFDLGDFNELIHLIKEDGGLRRDNIRCSKIRSMFAMRACRSSIMIGKPLNKKTMTRVVHNLSELDKPWNCPHGRPTMRHLMELRDWSSFSKDYEI", "notes": "Mlh1, S. cerevisiae; Pms1, S. cerevisiae; also called MMR endonuclease Mlh1–Pms1"}}, "key": {"Msh2–Msh6(K988A)": {"biological_target": "T1, Msh2–Msh6(K988A) (S. cerevisiae, UniProt P25847 1-964; Q03834 1-1242, K988A)", "T1 construct": "Msh2, S. cerevisiae, wild type; Msh6, S. cerevisiae, Walker A lysine mutant; also called Walker A Lys mutant Msh2–Msh6 complex", "T1 sequence (P25847 whole entry, chain 1 of 2)": "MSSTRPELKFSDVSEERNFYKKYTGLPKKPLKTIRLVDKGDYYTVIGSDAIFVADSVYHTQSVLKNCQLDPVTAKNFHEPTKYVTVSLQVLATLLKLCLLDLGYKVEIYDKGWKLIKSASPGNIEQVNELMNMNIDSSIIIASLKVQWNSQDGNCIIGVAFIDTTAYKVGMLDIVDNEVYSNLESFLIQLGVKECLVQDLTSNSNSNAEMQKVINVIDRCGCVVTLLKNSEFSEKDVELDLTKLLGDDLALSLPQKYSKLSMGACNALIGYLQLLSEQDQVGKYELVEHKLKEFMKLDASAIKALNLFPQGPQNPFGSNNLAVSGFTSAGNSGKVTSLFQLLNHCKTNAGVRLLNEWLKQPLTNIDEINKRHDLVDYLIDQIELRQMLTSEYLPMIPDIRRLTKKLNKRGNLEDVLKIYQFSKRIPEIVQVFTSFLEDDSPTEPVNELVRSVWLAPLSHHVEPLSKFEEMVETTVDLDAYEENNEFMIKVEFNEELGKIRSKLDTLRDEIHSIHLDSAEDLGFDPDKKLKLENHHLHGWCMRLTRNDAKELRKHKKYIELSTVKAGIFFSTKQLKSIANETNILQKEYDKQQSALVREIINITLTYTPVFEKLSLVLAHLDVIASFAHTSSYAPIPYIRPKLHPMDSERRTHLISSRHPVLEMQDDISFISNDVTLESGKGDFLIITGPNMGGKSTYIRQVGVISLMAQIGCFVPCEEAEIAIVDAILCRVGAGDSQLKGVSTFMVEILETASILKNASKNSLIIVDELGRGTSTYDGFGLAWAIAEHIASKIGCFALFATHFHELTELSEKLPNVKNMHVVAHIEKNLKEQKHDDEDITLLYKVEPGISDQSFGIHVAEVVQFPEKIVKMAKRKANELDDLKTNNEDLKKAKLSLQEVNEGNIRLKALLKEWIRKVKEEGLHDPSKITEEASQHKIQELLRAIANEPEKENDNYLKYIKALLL", "T1 sequence (Q03834 whole entry K988A, chain 2 of 2)": "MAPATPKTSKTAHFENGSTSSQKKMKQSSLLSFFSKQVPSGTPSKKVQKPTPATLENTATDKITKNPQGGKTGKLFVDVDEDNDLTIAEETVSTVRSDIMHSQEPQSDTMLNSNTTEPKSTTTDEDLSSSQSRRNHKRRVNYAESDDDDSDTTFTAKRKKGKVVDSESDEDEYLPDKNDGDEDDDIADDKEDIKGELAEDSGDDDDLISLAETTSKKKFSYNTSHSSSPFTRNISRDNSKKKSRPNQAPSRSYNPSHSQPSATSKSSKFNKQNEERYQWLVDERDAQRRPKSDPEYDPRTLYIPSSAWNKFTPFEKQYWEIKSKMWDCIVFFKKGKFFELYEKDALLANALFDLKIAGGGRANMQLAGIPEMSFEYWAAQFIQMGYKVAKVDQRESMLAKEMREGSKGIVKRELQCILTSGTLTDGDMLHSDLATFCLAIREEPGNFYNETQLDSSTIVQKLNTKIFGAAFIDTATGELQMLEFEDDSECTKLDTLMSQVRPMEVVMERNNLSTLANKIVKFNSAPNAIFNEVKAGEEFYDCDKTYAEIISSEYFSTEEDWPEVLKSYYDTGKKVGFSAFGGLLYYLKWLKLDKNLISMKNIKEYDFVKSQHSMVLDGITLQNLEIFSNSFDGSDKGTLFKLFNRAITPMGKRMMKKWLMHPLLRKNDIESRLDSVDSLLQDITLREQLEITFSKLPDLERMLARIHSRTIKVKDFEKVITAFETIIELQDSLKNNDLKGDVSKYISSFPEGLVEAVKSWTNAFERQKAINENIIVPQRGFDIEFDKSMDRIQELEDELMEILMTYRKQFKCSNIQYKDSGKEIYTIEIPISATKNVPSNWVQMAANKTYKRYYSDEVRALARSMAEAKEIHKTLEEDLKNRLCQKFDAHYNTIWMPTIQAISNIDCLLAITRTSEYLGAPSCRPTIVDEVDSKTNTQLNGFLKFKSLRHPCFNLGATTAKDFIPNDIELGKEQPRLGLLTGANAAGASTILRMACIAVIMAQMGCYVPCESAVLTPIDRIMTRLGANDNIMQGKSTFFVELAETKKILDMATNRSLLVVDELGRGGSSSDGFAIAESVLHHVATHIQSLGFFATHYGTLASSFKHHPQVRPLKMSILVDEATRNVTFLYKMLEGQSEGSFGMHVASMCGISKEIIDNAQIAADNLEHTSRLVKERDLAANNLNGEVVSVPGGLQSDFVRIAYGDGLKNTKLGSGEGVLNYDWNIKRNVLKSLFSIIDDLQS", "assay": "SPR; Biacore T100; 236-bp GT mispair DNA held by biotin-streptavidin, other end blocked by lacO-LacI; 20 nM Msh2–Msh6, 250 μM ATP, 30 nM LacI for 100 s, then the same plus 40 nM Mlh1–Pms1 for 300 s; recruitment read as the increase in RU over steady-state Msh2–Msh6; 25 mM Tris pH 8, 4 mM MgCl2, 110 mM NaCl, 0.01% Igepal, 2 mM DTT, 2% glycerol; 10 °C, 20 μl/min", "conditions": "both partners purified"}, "[1]": {"biological_target": "T2, S. cerevisiae Msh2–Msh6 (WT) (S. cerevisiae, UniProt P25847 1-964; Q03834 1-1242)", "T2 construct": "Msh2, S. cerevisiae, wild type; Msh6, S. cerevisiae, wild type; Heterodimer; also called WT Msh2–Msh6", "assay": "SPR; Biacore T100; 236-bp GT mispair DNA held by biotin-streptavidin, other end blocked by lacO-LacI; 20 nM Msh2–Msh6, 250 μM ATP, 30 nM LacI for 100 s, then the same plus 40 nM Mlh1–Pms1 for 300 s; recruitment read as the increase in RU over steady-state Msh2–Msh6; 25 mM Tris pH 8, 4 mM MgCl2, 110 mM NaCl, 0.01% Igepal, 2 mM DTT, 2% glycerol; 10 °C, 20 μl/min", "conditions": "both partners purified"}, "Msh2–Msh6(K988R)": {"biological_target": "T3, Msh2–Msh6(K988R) (S. cerevisiae, UniProt P25847 1-964; Q03834 1-1242, K988R)", "T3 construct": "Msh2, S. cerevisiae, wild type; Msh6, S. cerevisiae, Walker A lysine mutant; also called Walker A Lys mutant Msh2–Msh6 complex", "T3 sequence (P25847 whole entry, chain 1 of 2)": "as the sequence (P25847 whole entry, chain 1 of 2) above", "T3 sequence (Q03834 whole entry K988R, chain 2 of 2)": "as the sequence (Q03834 whole entry K988A, chain 2 of 2) above, with A988R counted along it", "assay": "SPR; Biacore T100; 236-bp GT mispair DNA held by biotin-streptavidin, other end blocked by lacO-LacI; 20 nM Msh2–Msh6, 250 μM ATP, 30 nM LacI for 100 s, then the same plus 40 nM Mlh1–Pms1 for 300 s; recruitment read as the increase in RU over steady-state Msh2–Msh6; 25 mM Tris pH 8, 4 mM MgCl2, 110 mM NaCl, 0.01% Igepal, 2 mM DTT, 2% glycerol; 10 °C, 20 μl/min", "conditions": "both partners purified"}, "Msh2–Msh6(K988M)": {"biological_target": "T4, Msh2–Msh6(K988M) (S. cerevisiae, UniProt P25847 1-964; Q03834 1-1242, K988M)", "T4 construct": "Msh2, S. cerevisiae, wild type; Msh6, S. cerevisiae, Walker A lysine mutant; also called Walker A Lys mutant Msh2–Msh6 complex; source: purified", "T4 sequence (P25847 whole entry, chain 1 of 2)": "as the sequence (P25847 whole entry, chain 1 of 2) above", "T4 sequence (Q03834 whole entry K988M, chain 2 of 2)": "as the sequence (Q03834 whole entry K988A, chain 2 of 2) above, with A988M counted along it", "assay": "SPR; Biacore T100; 236-bp GT mispair DNA held by biotin-streptavidin, other end blocked by lacO-LacI; 20 nM Msh2–Msh6, 250 μM ATP, 30 nM LacI for 100 s, then the same plus 40 nM Mlh1–Pms1 for 300 s; recruitment read as the increase in RU over steady-state Msh2–Msh6; 25 mM Tris pH 8, 4 mM MgCl2, 110 mM NaCl, 0.01% Igepal, 2 mM DTT, 2% glycerol; 10 °C, 20 μl/min", "conditions": "both partners purified"}, "Msh2(K694M)–Msh6": {"biological_target": "Msh2(K694M)–Msh6 (S. cerevisiae, UniProt P25847 1-964; Q03834 1-1242, K694M)", "sequence (P25847 whole entry K694M, chain 1 of 2)": "as the sequence (P25847 whole entry, chain 1 of 2) above, with K694M counted along it", "sequence (Q03834 whole entry, chain 2 of 2)": "as the sequence (Q03834 whole entry K988A, chain 2 of 2) above, with A988K counted along it", "assay": "cell-based or functional assay"}, "Msh2(K694R)–Msh6": {"biological_target": "Msh2(K694R)–Msh6 (S. cerevisiae, UniProt P25847 1-964; Q03834 1-1242, K694R)", "sequence (P25847 whole entry K694R, chain 1 of 2)": "as the sequence (P25847 whole entry, chain 1 of 2) above, with K694R counted along it", "sequence (Q03834 whole entry, chain 2 of 2)": "as the sequence (Q03834 whole entry K988A, chain 2 of 2) above, with A988K counted along it", "assay": "cell-based or functional assay"}, "Msh2(K694A)–Msh6": {"biological_target": "Msh2(K694A)–Msh6 (S. cerevisiae, UniProt P25847 1-964; Q03834 1-1242, K694A)", "sequence (P25847 whole entry K694A, chain 1 of 2)": "as the sequence (P25847 whole entry, chain 1 of 2) above, with K694A counted along it", "sequence (Q03834 whole entry, chain 2 of 2)": "as the sequence (Q03834 whole entry K988A, chain 2 of 2) above, with A988K counted along it", "assay": "cell-based or functional assay"}}}
{"binder": "B1", "values": [{"measurement": "binding result", "setting": "Msh2–Msh6(K988A)", "result": "binds"}, {"measurement": "stoichiometry N", "setting": "[1]", "result": 1.07, "unit": "Mlh1–Pms1 per Msh2–Msh6"}, {"measurement": "binding result", "setting": "Msh2–Msh6(K988R)", "result": "binds"}, {"measurement": "binding result", "setting": "Msh2–Msh6(K988M)", "result": "binds"}, {"measurement": "Mlh1–Pms1 endonuclease nicking of a 3′ nicked mispaired DNA promoted by the Msh2–Msh6 variant (with PCNA, RFC-Δ1N), 0.1 and 2.5 mM ATP, relative to WT Msh2–Msh6", "setting": "Msh2(K694M)–Msh6", "result": "~50 % of the nicking of WT Msh2–Msh6"}, {"measurement": "Mlh1–Pms1 endonuclease nicking of a 3′ nicked mispaired DNA promoted by the Msh2–Msh6 variant (with PCNA, RFC-Δ1N), 0.1 and 2.5 mM ATP, relative to WT Msh2–Msh6", "setting": "Msh2(K694R)–Msh6", "result": "~50 % of the nicking of WT Msh2–Msh6"}, {"measurement": "Mlh1–Pms1 endonuclease nicking of a 3′ nicked mispaired DNA promoted by the Msh2–Msh6 variant (with PCNA, RFC-Δ1N), 0.1 and 2.5 mM ATP, relative to WT Msh2–Msh6", "setting": "Msh2(K694A)–Msh6", "result": "~50 % of the nicking of WT Msh2–Msh6"}]}
